Results published in a protein production outcome set (Wang et al. 2014).

Experiment: label from the status in PepcDB records

MMIIGINGSPRKNGNTIEMLKSALDGAKAQGAETELINLYDYNYKGCVSCFSCKLKGGRSYGKCALKDDLKPILEKIEKADAFILASPIYFGMVTGEMRSFMERLLFQYLVYDKDHSSLFNRKIKTGFIYTMNVPETYLDSVGYNKLFESNEATLKRIFGASEYILSTDTYQFDDYSKYEASMFDVEAKKKRREEVFPEDCKRAYEMGASFVKLEHHHHHH
protein production: failed

MMINMNRKITTYQWWIATLAIVSIFLIILDFAAVIDINIPTSKWFWINDGIVVYFAINYFYHLSKSNDKKTFFKNHIYDLLIIIPIGMLFVVLNAFNLSSLVSYLRLLRLIRLAGLMGKLRQIFHTNGLWYVVFFTITFLLVGAEAFAISEHVSLDTAFWWVLSTASTVGYDGIFGKTIPPHSIVGKFVTLVMMLLGIGIVGMLTSSITSYLVRRTNGANTLETHDNIELILKKLDDIEQQNKELTYQNKKLQAEIQTLKGEKNPLMSYIR
protein production: failed

MMISDLPEDMVEEILSRVSIISLGALRWNDLSKARVICKAEARQQFAGFMIKGSKEVSNTRLVVWNPYLGKIWSIQHRSAYHSENRYTLGYDNNRKPQNLEEQLAVLLHNWGAFAMEIWVTTNIEPNAKKHAVIFDSSLSCGSVACIIGETGNLRTVDLGVAAVPYRQLPVCSYAPSLEQINQGQELPLIGLTQIFMEQHKYWVSTFLDNLITKYG
protein production: failed

MMIVYKGEKMQFIRVNTLKINPEVLKKRLENKGVVLEKTFLDYAFEVKKSPFSIGSTPEYLFGYYMPQSISSMIPPIVLNPREDDFILDMCAAPGGKTTHLAQLMKNKGTIVAVEISKTRTKALKSNINRMGVLNTIIINADMRKYKDYLLKNEIFFDKILLDAPCSGNIIKDKNRNVSEEDIKYCSLRQKELIDIGIDLLKKDGELVYSTCSMEVEENEEVIKYILQKRNDVELIIIKANEFKGINIKEGYIKGTLRVFPPNEPFFIAKLRKI
protein production: not failed

MMKEFTPAPDSASIVSVTDRVKPVALGMGVTSVHFLGDRAAFVGGEENVAFVDSQGEITTVAVHGGGILSTASDGKRLVMGGDDGKVVSLDAKGEVTLLATDPKRRWIDAVALHADGAFAWSAGKTATVKSGKTEEKSLEVPSTVGGLAFAPKGLRLAIAHYNGATLWFPNMAASAEFLPWAGSHHAVTFSPDNKFLVTAMHEPALHGWRLADNRHMRMTGYPGRVRSMSWSAGGKALATSGADTVILWPFGSKDGPMGKEPAMLAPLQARVSVVACHPKNDILAAGYSDGTVLMVRLEDGAEILVRRNGTPPVAALAWNAKGTLLAFADENGDGGLLELLEHHHHHH
protein production: not failed

MMKIIAFVGMPASGKSEASRIAAEMGIPVIIMGDVIRKEVLKRGLEPNDSNTGMVATDLRKHEGMGAVARRCISQIRETGSELVVVDGVRGIAEVECFRKEFGKGFILISIYAPIEVRFSRVQKRGRSDDMNSIEGLRHRDERELSWGMGEAIDASNVEIENNFTLETFRKDVRDVLSNYLEADLEK
protein production: not failed

MMKKLFLDTHSASGEIKLTDGLLYWFPQFLTPIQADQAFQQMLTHLDWQQKSIRLFGKSVLQPRLIAWYGEKGYRYSGLSLSAQPFPPPLLTLKTQCEQAAQAPFNSVLANLYRDGQDSMGWHQDNEPELGSNPVIASLSLGESRRFLLRHHKDHALQVECELNHGDLLIMAGNTQHFWQHAIPKTRQTKQTRINLTFRNILLEHHHHHH
protein production: not failed

MMKKTAAIISACMLTFALSACSGSNYVMHTNDGRTIVSDGKPQTDNDIGMISYKDANGNKQQINRTDVKEMVELEQLEHHHHHH
protein production: failed

MMKLKKVLVLGGTRFFGKHLVEALLKDGHDVTIATRGITEDSFGSRVKRLIVDREDEKQLAERLEDKSYDIVYDNLCYSSNAATIICEVLRGKTRKYVMTSSMAVYDPAINLSEEDFNPYEYTIAYGGRNDFNYGEGKRVAEAVVFQQATFPVVAVRFPVVIGENDYTKRLQFYVEHIVREEPVAVNHLDGELSFIHEEEAGGFLAWCGMEDIEGPINACSNGVVSSREIIHFIEENTGIKPLVQEVGDHVAPYNEVTNCTLHNGKANELGFPFRELKIEIEKVLRYYIHATK
protein production: failed

MMKLLSFDEACQWFDSLPAHKRIATLSPYYVLLDALRDTRLLATYIGFRQGDVFWMHSVHCSAAMAGEVIDLQSPYGYGGPISNCDDPVFLNMVWDLYVEFCARQGWLAEFVRFHPLGGVSSSYGGTIVVDRLTVAIDLTGPNIRSIYSTRCRTAVRKAINNGLNVRVGSERELREIFPHFYRDGMRAIAADKFYLFNDLYFSGFSTWKCATLLICHCDDDWLSAGIFLKDGNVMEYHLSATTPAGRNLGATNLLLDAAAHLGQEQGCSFLYLGGGTDSEKNNPLLFFKSGFSAATYPFLIGFTAFNQDKYQALREKFISDHKPTDRFLFYR
protein production: failed

MMKLMFASDIHGSLPATERVLELFAQSGAQWLVILGDVLNHGPRNALPEGYAPAKVAERLNEVAHKVIAVRGNCDSEVDQMLLHFPITAPWQQVLLEKQRLFLTHGHLFGPENLPALNQNDVLVYGHTHLPVAEQRGEIFHFNPGSVSIPKGGNPASYGMLDNDVLSVIALNDQSIIAQVAINP
protein production: not failed

MMKMMTRVLSSPSSHVSSLKYSPRRVIRASRDHLRAETLKSHQLPSGSSSTSLCSCGRKHFLEAASPTMPFLPICSPNASRSKDVSETFHPQRPDWYKELFAWFLSTGMRSYEAEVSLCDLNASFYDPFLENDRSFSCFMFVLFGKIAEYKRKLFEKLAGKAETVLEIGVGTGPNLKYFAGNENVCVFGMDPNHKMEKYACESAREAGMKPENFRFMHGVSKLLCFDL
protein production: failed

MMKPSVSAAILAAGTSTRMNEMKQLAKIQGTYMLKYVIDQVSNHPFQHIFVIVGHQADIVMKMIQVEDKRVQWLVNDQYKQGQSTSFKLAMEQARQYGDAVMMFLADQPLIEKETVNIVLNEGITRVQEEPFIVRPMYEKKEGHPVYWGNIHALDCSAVNGDKGGKTLMEELERMLIPVHDQGVLVDVDTCEDYKKVNDLMKRKSPSTHLEHHHHHH
protein production: not failed

MMKRHNILTVLAVLLLTFAACDKNSAPGFSFTTDSILTLTFDKELDAAFVGVGTQNYNPVGMRRSGDTLFIANRAEGSDGVWVVRASTGELLYSLTGWTYNGKNEKFDNQVMDVAVSSDYIFVVNRSSRIDLFRRNDYSYVTTIGRTGWQSSSLLQCEAAEVAGDKLFIRDKQKIKVVQISDCTPENRFKVPVFAQNTDSTSSNNGFNLESVARHEGLIYVSDYETSRILVIDPATVAVKGEPVRFLRSYRMPNKPLSMGFFQNEMYVVCANNCIVRVDLRTGKELGSYSSFAGGVGLGTPGRLLFHNDTFYLAGRNANAPRLIQGKVMFVEISELD
protein production: failed

MMLRRLALSAATGLMLALPALAETVSDFRLPNGLEVVVIEDHRAPVVTHMVWYRVGAADEPPGHSGIAHFLEHLMFKGTDEMSAGEFSATVEAQGGDDNAFTSWDYTAYFQRVAADRLDLMMKMEADRMRDLQMTEEDVRTERQVVLEERSQRTDSDPGAVFSEQSRAAAYLNHPYGIPIIGWRHEIEQLGREDAFSFYRTYYAPNNAILVVAGDVDPAEVRRMAEEHYGALEPTPNLPERLRPQEPPQLAERRLTFSDPRVAQPYVSRSYLAATRETGAQEKAAALTILAELLGGSPTTSLLSRELQFGPEPKAVWAQAYYDGGGLDSGTFGLAVVPAAGVSLQEAEDAMDAVVARFLKEGPDAEDFERIKTQLGAQDIYSRDNVDGLARRYGAALTTGLTVADVQAWPEVLQAVTPDEVMAAAREVFDRRRAVTGWLMQEDEEKSQ
protein production: failed

MMNETLKVIAERYSCRDFKNEMPSDELLQAIAEAAIQAPSGMNRQAWRVIVVKNKELMQEMEAEGLAYLAGMEDQSSYNRIMERGGRLFYGAPCMIVVPIDPTQYGPALVDCGILCQTIALAATSLGIANIMCGYTGLAFASGLRAEEFSKRLGFPEGYAFGCSVLLGHANTTKPPHVPDKDKITYVE
protein production: not failed

MMNRILLIFLILMSTCFAGCFEQNNLEKSQEMAEIGFAYIGIDNDKAIEYYEKAIKLNPDDANAISFLGTLYDGEGDREKAYEYLTKALEMEPKNPWMYYNLGLYYLNHDDNMAIGCFEKALRIDPENECCWSQLGYTYYDIGDYTNSKLNFEKAYEINPKDQYSDMIEKCNEGI
protein production: failed

MMNSDRNKYRKENDMGKQVRDKEVQEIMDYIMNKGEDSEERVYKLFKMNGVIYEIACNISRNQNSETTQNQIRKFYDYTIKINSKDEKKAKIKLAMMMPQIYYAIQRKVISSDSPFVKFLEDSIDKLNKTEDFENAFNRFLNVFQAIVAYSKKSRSDRNE
protein production: failed

MMNYNTPKVSIVVPSLNSISYIRECIDSILNQTLKDIEILCIDANSTDGTLEVLKNYEKKDKRLRVIISDKKSYGYQMNLGIKEAKGEYLGIVESDDYIKTNMYERLYEIAKKNDCEVVKGDFYILESNKGKYSKITPIDFLYNQIISFKTHPNIFNFQSINPIGIYRLDLLRTNQIKLNETPGASYQDNGLWFQIFALAKSIYFINEAFYMLRRDNPNSSVKSKEKVYCACEEYDFIRDFLKKHPDLEKTLAPICALHRFGNYMFTLERIDERYKLDFLKRFSQDFRKILKDKELDENLFGDGDMKIIYSIVENPENYYFLYMGYCNDMFGKLYFGASERIKWQLSYRIGKLLIDLKNPVQILKFPFKLFLEIKQFKFEQKIYKTTIKFYPNLQLPPLEEYSDYEQALKTKKHLSYILGKSFINNPILFIFKIKKIYKQYKKDISSSKKNIKELSDYDFLLNRHKQIFDYTPDFKCPVTFNEKLIYRILYDRSCIYSFLADKIKMRFYVASALSDNHEYSWDKIDILNEKSILFNNIDDLQDKIFETNKCKYLPKIYGIYKNIYDINFNELPNSFVLKTNHDCGGYVIVENKQEFLRDTVVFSNAMKKLKKHLEWNYYSVFREWHYKDIEPRVFAEELLLGENKKPADTYKFHIFDKENLSNNFIQVTTDRFDNYQRAMFDLSWNLAPFNFMYDNKNVTMIPKKPNLLDSMINISLILAKPFDYVRVDLYQFDKKIYIGELTFTHGAAGEKVIPKEWDKKLGDLWRLKRLDNASK
protein production: failed

MMQESGTETKSNGSAIQNGSGGSNHLLECGGLREGRSNGETPAVDIGAADLAHAQQQQQQWHLINHQPSRSPSSWLKRLISSPWELEVLQVPLWGAVAETKMSGPVCQPNPSPF
protein production: failed

MMQPKFCTRCLAMSTRPRITFNRDGVCNACLWQEQKSSVDWDDRNSKLLSLLDSHRSKNNSYDVIVPVSGGKDGSYVAYNLKHKFNMNPLCVTVTPPLETQLGAQNLKNFIKSGYDQVSININPETIRNINRAGFVHHGFPYFGWLVAIVTSVTRVAQQMNVPLIMYGEDAEMEYGGSSEKANLTTFGIEYMKRVGFEAGYEKVFSTLDLSDSDLYWLTFAEQDKTQVLFSHWSYFENWDPYRNYLVAKKQCGLQEADDTNFGTFTNFAQNDQYLYVLHTYLMYLKFGFGRSNQDACIEIRRGAMKREQAINLVRLYDGQFPDEFLQMYLEYYQMSEAEFNATLARWVNKDLFELKDGLWSPTFTIQ
protein production: failed

MMQVQYIIWLSCCFKRMNKDREFTESKTIKQNTKMKKRILGAALLVAIAVAAGWNYNQSRNEVPLSDLALANAEALAQGETDWGNCTYYGCIVDFSSTCNVYSSIWGNLIKVCPNMRG
protein production: failed

MMRAKVNQGINLNDYNGVWVIGEQREGKINPVTIELIGEGRKLADQLGKELAVVIAGYEVEKEVKELLHYSVDKVYYINDPLLKDFTTDGYAISIANLIERKKPEVVLVGATSIGRDIAPRIAGKVGTGLTADCTKLEIDSTDNKLLQTRPAFGGNLMATIVCPKNRPQMSTVRPGVMAKAVRNESETGILEVVTPELTEKMIRTRLVEIL
protein production: failed

MMRRQASVLLLVSMVSATVLPVFARAPGEREPSCAATSIVLPAGARYPNGIAHAADGTLYVGLVTSGRILRKPPGGEWETFFAGSPAIFAATALRLDEPRGLLWGNSPDFLPAGRRRPHGVFALDLASGAVRRYLTLPGDGMGNDLAVAPDGTVYLSETRDGSLMRLRPGEPAFQVLLRDSRLAGPGGLGAAGIVRVDDDTLLVGNFGSGAIHVVEGVATRPRLREMELPRTLENPDGMALAPDGSLIVLENAIRSGAGKVLRIAEPLAPGRRGIEVIREGLESPVNLTVTGQGCAYVSESRIRHRLLPGREGEVPARFLIHRLPLDAAGGR
protein production: failed
